Target: N-ethylmaleimide-sensitive factor (NSF), pRSET-A fusion protein (mouse, UniProt P46460 1-744)
Assay: SPR

N-ethylmaleimide-sensitive factor (NSF), pRSET-A fusion protein, sequence (P46460 whole entry, the tested form may be a part): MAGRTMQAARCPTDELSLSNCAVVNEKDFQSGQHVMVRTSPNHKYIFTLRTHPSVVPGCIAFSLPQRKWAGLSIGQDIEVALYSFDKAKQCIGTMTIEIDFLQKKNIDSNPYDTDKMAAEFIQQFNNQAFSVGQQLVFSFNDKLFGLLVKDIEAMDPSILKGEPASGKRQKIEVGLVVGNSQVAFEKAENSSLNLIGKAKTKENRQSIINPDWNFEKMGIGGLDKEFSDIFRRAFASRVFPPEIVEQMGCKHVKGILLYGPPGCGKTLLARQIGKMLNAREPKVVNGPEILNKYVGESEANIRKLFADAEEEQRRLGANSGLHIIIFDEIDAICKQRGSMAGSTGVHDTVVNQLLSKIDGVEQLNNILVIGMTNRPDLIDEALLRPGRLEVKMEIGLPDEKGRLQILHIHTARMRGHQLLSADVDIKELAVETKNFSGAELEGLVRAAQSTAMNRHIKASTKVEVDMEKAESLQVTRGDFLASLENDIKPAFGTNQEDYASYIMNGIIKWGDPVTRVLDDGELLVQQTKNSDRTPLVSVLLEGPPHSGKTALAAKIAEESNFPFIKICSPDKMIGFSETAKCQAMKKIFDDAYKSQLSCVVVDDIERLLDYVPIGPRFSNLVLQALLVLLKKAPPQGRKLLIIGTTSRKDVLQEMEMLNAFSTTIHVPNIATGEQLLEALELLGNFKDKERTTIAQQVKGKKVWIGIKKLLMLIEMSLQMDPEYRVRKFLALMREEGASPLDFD

B1: rat organ of Corti dopamine D1A carboxy terminus, pRSET-A fusion protein (domain or fragment, UniProt P18901 338-425, looked up)
chain: QKAFSTLLGCYRLCPTTNNAIETVSINNNGAVVFSSHHEPRGSISKDCNLVYLIPHAVGSSEDLKKEEAGGIAKPLEKLSPALSVILD
B1 gave a Kd of 12.1 nM, a koff of 0.00274 s⁻¹ and a kon of 227000 M⁻¹ s⁻¹.
